Patent publication US20230357348A1 (AstraZeneca / MedImmune, published 2023)
Starred links: 1 amine or outer side, 2 acyl side, 3 side chain; linkers in the order of their positions; H or OH if unused. Non-standard residues stand in square brackets, D forms with d. Groups on a side chain read outwards from the residue. No end group written: not given here. *: point of attachment. C20 diacid = O=C(O)CCCCCCCCCCCCCCCCCCC(=O)*; C18 diacid = O=C(O)CCCCCCCCCCCCCCCCC(=O)*; γGlu = O=C(O)[C@H](CCC(=O)[*:2])N[*:1]; αMeF = C[C@](N)(Cc1ccccc1)C(=O)O; AEEA = NCCOCCOCC(=O)O; Aib = CC(C)(N)C(=O)O

What was measured:
[1] = biological target: human GLP-1 receptor (hGLP-1R) (human, UniProt P43220 24-463); assay: cell-based or functional assay
[2] = biological target: human glucagon receptor (hGCGR) (human, UniProt P47871 26-477); assay: cell-based or functional assay
Sequence of human glucagon receptor (hGCGR) (P47871 26-477): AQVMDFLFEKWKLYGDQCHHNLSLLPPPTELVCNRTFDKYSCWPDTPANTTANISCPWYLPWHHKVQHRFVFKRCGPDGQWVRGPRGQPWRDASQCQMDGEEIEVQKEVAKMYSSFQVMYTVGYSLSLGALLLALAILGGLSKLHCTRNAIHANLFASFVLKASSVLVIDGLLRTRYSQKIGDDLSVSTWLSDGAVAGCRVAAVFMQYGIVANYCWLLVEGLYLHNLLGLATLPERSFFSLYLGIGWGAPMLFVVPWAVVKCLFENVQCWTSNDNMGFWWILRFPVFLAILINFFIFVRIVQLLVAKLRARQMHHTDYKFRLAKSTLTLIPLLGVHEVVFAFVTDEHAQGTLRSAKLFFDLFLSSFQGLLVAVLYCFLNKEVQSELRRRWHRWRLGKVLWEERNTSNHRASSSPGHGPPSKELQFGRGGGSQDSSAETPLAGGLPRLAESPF

B1: Peptide 153 (peptide)
peptide: H[Aib]QGTFTSDVSK[αMeF]LDSK([AEEA-AEEA-γGlu-C20 diacid])RAQDFVRWLL[Aib]E-OH
modifications: N-terminus assumed
SMILES: CC(C)C[C@H](NC(=O)[C@H](Cc1c[nH]c2ccccc12)NC(=O)[C@H](CCCNC(=N)N)NC(=O)[C@@H](NC(=O)[C@H](Cc1ccccc1)NC(=O)[C@H](CC(=O)O)NC(=O)[C@H](CCC(N)=O)NC(=O)[C@H](C)NC(=O)[C@H](CCCNC(=N)N)NC(=O)[C@H](CCCCNC(=O)COCCOCCNC(=O)COCCOCCNC(=O)CC[C@H](NC(=O)CCCCCCCCCCCCCCCCCCC(=O)O)C(=O)O)NC(=O)[C@H](CO)NC(=O)[C@H](CC(=O)O)NC(=O)[C@H](CC(C)C)NC(=O)[C@](C)(Cc1ccccc1)NC(=O)[C@H](CCCCN)NC(=O)[C@H](CO)NC(=O)[C@@H](NC(=O)[C@H](CC(=O)O)NC(=O)[C@H](CO)NC(=O)[C@@H](NC(=O)[C@H](Cc1ccccc1)NC(=O)[C@@H](NC(=O)CNC(=O)[C@H](CCC(N)=O)NC(=O)C(C)(C)NC(=O)[C@@H](N)Cc1c[nH]cn1)[C@@H](C)O)[C@@H](C)O)C(C)C)C(C)C)C(=O)N[C@@H](CC(C)C)C(=O)NC(C)(C)C(=O)N[C@@H](CCC(=O)O)C(=O)O
For B1, the “hGLP-1R EC50 (pM)” value [1] was 41.2 pM and the “hGluc-R EC50 (pM)” value [2] was 99 pM.

B2: Peptide 166 (peptide)
peptide: H[Aib]QGTFTSDVSK[αMeF]LDSK([AEEA-AEEA-γGlu-C18 diacid])RARDFVRWLL[Aib]TE-OH
modifications: N-terminus assumed
SMILES: CC(C)C[C@H](NC(=O)[C@H](Cc1c[nH]c2ccccc12)NC(=O)[C@H](CCCNC(=N)N)NC(=O)[C@@H](NC(=O)[C@H](Cc1ccccc1)NC(=O)[C@H](CC(=O)O)NC(=O)[C@H](CCCNC(=N)N)NC(=O)[C@H](C)NC(=O)[C@H](CCCNC(=N)N)NC(=O)[C@H](CCCCNC(=O)COCCOCCNC(=O)COCCOCCNC(=O)CC[C@H](NC(=O)CCCCCCCCCCCCCCCCC(=O)O)C(=O)O)NC(=O)[C@H](CO)NC(=O)[C@H](CC(=O)O)NC(=O)[C@H](CC(C)C)NC(=O)[C@](C)(Cc1ccccc1)NC(=O)[C@H](CCCCN)NC(=O)[C@H](CO)NC(=O)[C@@H](NC(=O)[C@H](CC(=O)O)NC(=O)[C@H](CO)NC(=O)[C@@H](NC(=O)[C@H](Cc1ccccc1)NC(=O)[C@@H](NC(=O)CNC(=O)[C@H](CCC(N)=O)NC(=O)C(C)(C)NC(=O)[C@@H](N)Cc1c[nH]cn1)[C@@H](C)O)[C@@H](C)O)C(C)C)C(C)C)C(=O)N[C@@H](CC(C)C)C(=O)NC(C)(C)C(=O)N[C@H](C(=O)N[C@@H](CCC(=O)O)C(=O)O)[C@@H](C)O
In the case of B2, the “hGLP-1R EC50 (pM)” value [1] is reported as 48 pM and the “hGluc-R EC50 (pM)” value [2] is reported as 270 pM.

B3: Peptide 5 (peptide)
peptide: H[Aib]QGS[αMeF]TSDVSK[αMeF]LDSK([AEEA-AEEA-γGlu-γGlu-C18 diacid])AAQD[αMeF]VQ[Aib]IAN-NH2
modifications: N-terminus assumed
SMILES: CC[C@H](C)[C@H](NC(=O)C(C)(C)NC(=O)[C@H](CCC(N)=O)NC(=O)[C@@H](NC(=O)[C@](C)(Cc1ccccc1)NC(=O)[C@H](CC(=O)O)NC(=O)[C@H](CCC(N)=O)NC(=O)[C@H](C)NC(=O)[C@H](C)NC(=O)[C@H](CCCCNC(=O)COCCOCCNC(=O)COCCOCCNC(=O)CC[C@H](NC(=O)CC[C@H](NC(=O)CCCCCCCCCCCCCCCCC(=O)O)C(=O)O)C(=O)O)NC(=O)[C@H](CO)NC(=O)[C@H](CC(=O)O)NC(=O)[C@H](CC(C)C)NC(=O)[C@](C)(Cc1ccccc1)NC(=O)[C@H](CCCCN)NC(=O)[C@H](CO)NC(=O)[C@@H](NC(=O)[C@H](CC(=O)O)NC(=O)[C@H](CO)NC(=O)[C@@H](NC(=O)[C@](C)(Cc1ccccc1)NC(=O)[C@H](CO)NC(=O)CNC(=O)[C@H](CCC(N)=O)NC(=O)C(C)(C)NC(=O)[C@@H](N)Cc1c[nH]cn1)[C@@H](C)O)C(C)C)C(C)C)C(=O)N[C@@H](C)C(=O)N[C@@H](CC(N)=O)C(N)=O
In the case of B3, the “hGLP-1R EC50 (pM)” value [1] is reported as 283 pM and the “hGluc-R EC50 (pM)” value [2] is reported as 7140 pM.
